From US20250215403A1, “Compositions and Methods for Cardiac Tissue Regeneration” (Temple University - Of The Commonwealth System Of Higher …, priority 2022, published 2025)

Tested on: β-catenin
Assay: β-catenin immunostaining in CM nucleus and cytoplasm
Format: cell-based, rat
Conditions: NRVM; 48 hours after modRNA
Method: Mice hearts were harvested, weighed, and fixed in 4% PFA/PBS overnight on shaker and then washed with PBS for 1 hour and incubated in 30% sucrose/PBS at 4° C. for 12-18 hours. Hearts were then fixed in OCT and frozen at −80° C. (Magadum A., et al., Circulation. 2020, 141 (15): 1249-1265). Transverse heart sections (6-8 μm) were made using a cryostat. Frozen sections were rehydrated in PBS for 5-10 min followed by permeabilization with PBS with 0.1% Triton™ X100 (PBST) for 7-8 min. Heart sections were then treated with 3% H2O2 for 5 min and washed (3×5 min) with PBST. The samples were then blocked with PBS+10% Donkey normal serum+0.1% Triton™ X100 (PBSST) for 1 hour at room temperature. Primary antibodies (see complete list of primary antibodies used for this Example in Table 2 below) diluted in PBST were added and incubated overnight at 4° C. […] For immunostaining with wheat germ agglutinin (WGA) for CM size quantification, images were captured at 40× magnification, and ImageJ was used to determine the area of each cell. Quantitative analyses involved counting of multiple fields from 5-8 mouse hearts per group, and 3-4 sections/heart (˜50 cells per field assessed, for a total ˜250 cells per sample). […] BrdU positive CMs were counted in multiple fields from three independent samples per group and 3 sections/heart. The total number of CMs counted was ˜1-1.5×10^3 CMs per section. […]

B1: PSAT1 modRNA: modified mRNA with N1-methylpseudouridine, transcribed in vitro, encoding phosphoserine aminotransferase 1 (ORF SEQ ID NO: 1, RNA SEQ ID NO: 2) (nucleic acid)
chain: AUGGAAGCCACCAAGCAAGUGGUUAACUUUGGGCCCGGGCCUGCCAAGCUGCCACACUCGGUAUUGUUGGAGAUCCAGAAGCAGCUACUAGACUACAGAGGACUCGGCAUCAGUGUGCUCGAAAUGAGUCACAGGUCAUCAGAUUUUGCCAAGAUUAUUGGCAAUACAGAGAAUCUUGUGAGGGAAUUGCUAGCUGUUCCCAACAACUACAAGGUGAUCUUUGUACAAGGAGGUGGGUCUGGCCAGUUCAGUGCUGUCCCCUUAAAUCUGAUUGGCCUGAAAGCUGGAAGGAGUGCUGACUACGUGGUGACCGGAGCUUGGUCAGCUAAGGCUGCGGAAGAAGCCAAGAAGUUUGGAACGGUGAACAUUGUCCACCCUAAACUUGGAAGUUACACAAAAAUUCCAGACCCAAGCACCUGGAACCUCAACCCGGACGCCUCCUAUGUAUACUUCUGUGCAAACGAGACUGUGCACGGGGUGGAGUUUGACUUCGUACCUGACGUCAAGGGAGCGGUGCUGGUCUGUGACAUGUCCUCAAACUUCUUAUCCAGGCCGGUGGAUGUUUCCAAGUUUGGUGUGAUUUUCGCUGGUGCUCAGAAGAAUGUUGGCUCUGCCGGGGUGACGGUGGUGAUUGUCCGGGAUGACCUGCUGGGGUUCUCGCUCAGAGAGUGCCCAUCAGUCCUUGACUACAAAGUGCAGGCUGGGAACAACUCUUUGUAUAACACACCUCCGUGCUUCAGCAUCUACGUCAUGGGCAUGGUCCUGGAAUGGAUCAAGAACAACGGCGGGGCCGCAGCCAUGGAGAAGCUCAGCUCCAUCAAAUCCCAAAUGAUUUAUGAGAUCAUUGAUAAUUCUCAAGGAUUUUAUGUAUGCCCAGUGGAGCGCCAGAAUAGAAGCAGGAUGAACAUCCCAUUUCGCAUUGGCAACGCCAAAGGAGACGAAGCUUUGGAAAAGCGGUUUCUUGACAAGGCGGUAGAACUCAACAUGAUCUCCUUGAAGGGGCACAGGUCAGUGGGAGGCAUUCGUGCCUCUCUGUAUAACGCUGUCACAACCGAAGACGUUGAGAAGCUGGCGGCCUUCAUGAAGAAUUUCUUGGAGAUGCAUCAGCUGUGA
modifications: N1-methylpseudouridine
- stabilized β-catenin localisation to CM nuclei: translocated
- β-catenin stabilization: significantly induced
